Source: patent US20020049159A1 (published 2002)

Target: T1, OP-1 pro domain polypeptide (human, UniProt P18075 30-292)
T1 construct: Two pro domains (39 kDa each) stand in the soluble complex with one mature dimer; The complex was isolated from CHO conditioned medium; also called pro domain peptide
Test: soluble complex purified from CHO conditioned medium without denaturants (Zn-IMAC, S-Sepharose, Sephacryl S-200HR gel filtration); elutes at an apparent 110 kDa
Experimental: In this example, OP-1 was expressed in mammalian (CHO, Chinese hamster ovary) cells as described in the art (see, for example, international application US90/05903 (WO 91/05802). The CHO cell conditioned media containing 0.5% FBS is initially purified using Immobilized Metal-Ion Affinity Chromatography (IMAC). The soluble OP-1 complex from conditioned media binds very selectively to the Zn-IMAC resin and a high concentration of imidazole (50 mM imidazole, pH 8.0) is required for the effective elution of the bound complex. The Zn-IMAC purified soluble OP-1 is next applied to an S-Sepharose action-exchange column equilibrated in 20 mM NaPO₄ (pH 7.0) with 50 mM NaCl. The protein then is applied to a Sephacryl S-200HR column equilibrated in TBS. Using substantially the same protocol, soluble morphogens can also be isolated from one or more body fluids, including milk, serum, cerebrospinal fluid or peritoneal fluid.

T1 sequence (P18075 30-292): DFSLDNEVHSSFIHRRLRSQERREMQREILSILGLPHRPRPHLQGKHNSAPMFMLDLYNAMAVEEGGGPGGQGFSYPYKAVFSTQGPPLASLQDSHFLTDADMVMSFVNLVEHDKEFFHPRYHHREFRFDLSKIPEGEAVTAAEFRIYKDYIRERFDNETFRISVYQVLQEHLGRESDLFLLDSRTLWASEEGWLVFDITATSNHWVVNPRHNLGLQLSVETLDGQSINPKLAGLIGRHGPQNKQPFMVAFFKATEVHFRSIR

B1: mature human OP-1 dimer (recombinant, expressed in CHO cells) (ligand)
chain: STGSKQRSQNRSKTPKNQEALRMANVAENSSSDQRQACKKHELYVSFRDLGWQDWIIAPEGYAAYYCEGECAFPLNSYMNATNHAIVQTLVHFINPETVPKPCCAPTQLNAISVLYFDDSSNVILKKYRNMVVRACGCH
notes: Dimer of 35-36 kDa, glycosylated when made in CHO cells; also called hOP-1; human osteogenic protein 1
binding result: binds
